Patent US20260242478A1 (published 2026)
Where no end group is shown, it is not given here.

B1: Phage-1788 (clonal phage displaying the peptide of SEQ ID NO: 2084) (peptide)
peptide: LEKLCKPAWMCVNF
B2: Phage-1789 (clonal phage displaying the peptide of SEQ ID NO: 2085) (peptide)
peptide: IDIRCTPIWMCVGF
B3: Phage-1847 (peptide)
peptide: SMHWCTPKWMCEGL
modifications: cysteine pairing not given here; also: displayed on phage as pIII fusion, pIII and linker sequences not given here
notes: Clone of the Peptide-180 library
B4: Phage-1853 (peptide)
peptide: MEKWCIPEWMCLHT
modifications: cysteine pairing not given here; also: displayed on phage as pIII fusion, pIII and linker sequences not given here
notes: as for B3
B5: Phage-1850 (peptide)
peptide: PTKLCIPEWMCYVR
modifications: cysteine pairing not given here; also: displayed on phage as pIII fusion, pIII and linker sequences not given here
notes: as for B3
B6: Phage-1855 (peptide)
peptide: MEKWCTPSWMCVGF
modifications: cysteine pairing not given here; also: displayed on phage as pIII fusion, pIII and linker sequences not given here
notes: as for B3
B7: Phage-1849 (peptide)
peptide: FSHWCIPEWMCSTS
modifications: cysteine pairing not given here; also: displayed on phage as pIII fusion, pIII and linker sequences not given here
notes: as for B3
B8: Phage-1854 (peptide)
peptide: WEKWCTPQWMCELI
modifications: cysteine pairing not given here; also: displayed on phage as pIII fusion, pIII and linker sequences not given here
notes: as for B3
B9: Phage-1848 (peptide)
peptide: AIPWCIPAWMCQVF
modifications: cysteine pairing not given here; also: displayed on phage as pIII fusion, pIII and linker sequences not given here
notes: as for B3
B10: Phage-1846 (peptide)
peptide: PSMRCIPEWMCAML
modifications: cysteine pairing not given here; also: displayed on phage as pIII fusion, pIII and linker sequences not given here
notes: as for B3
B11: Phage-1852 (peptide)
peptide: WDHWCTPAWMCEFV
modifications: cysteine pairing not given here; also: displayed on phage as pIII fusion, pIII and linker sequences not given here
notes: as for B3
B12: Phage-1851 (peptide)
peptide: SEMLCKPSWMCLGF
modifications: cysteine pairing not given here; also: displayed on phage as pIII fusion, pIII and linker sequences not given here
notes: as for B3
B13: Phage-1841 (peptide)
peptide: TDKWCIPPWMCMLQ
notes: tested as crude clonal phage supernatant
B14: Phage-1845 (peptide)
peptide: FTNWCTPEWMCSGF
notes: as for B13
B15: Phage-1831 (peptide)
peptide: IIPWCKPAWMCSGM
notes: as for B13
B16: Phage-1837 (peptide)
peptide: GLNWCTPTWMCQGF
notes: as for B13
B17: Phage-1843 (peptide)
peptide: LDRWCIPEWMCEMF
notes: as for B13
B18: Phage-1838 (peptide)
peptide: VMKWCIPVWMCGGM
notes: as for B13
B19: Phage-1844 (peptide)
peptide: TDKLCIPEWMCINW
notes: as for B13
B20: Phage-1835 (peptide)
peptide: YEKWCVPDWMCSMI
notes: as for B13
B21: Phage-1840 (peptide)
peptide: MVKWCIPSWMCDSV
notes: as for B13
B22: Phage-1833 (peptide)
peptide: DIPWCIPPWMCAGS
modifications: cysteine pairing not given here; also: displayed on phage as pIII fusion, pIII sequence and linker not given here
notes: as for B13
B23: Phage-1832 (peptide)
peptide: MGKWCIPEWMCNVS
notes: as for B13
B24: Phage-1834 (peptide)
peptide: VERMCMPAWMCDMF
notes: as for B13
B25: Phage-1839 (peptide)
peptide: YDILCRPSWMCSWV
notes: as for B13
B26: Phage-1836 (peptide)
peptide: WLPMCRPAWMCAGL
modifications: cysteine pairing not given here; also: displayed on phage as pIII fusion, pIII sequence and linker not given here
notes: as for B13
B27: Phage-1842 (peptide)
peptide: VERWCVPEWMCHWI
notes: as for B13

These binders were tested against T1, Anti-PSMA Fab (SEQ ID NOs: 19, 20) (assay: phage binding ELISA; biotinylated anti-PSMA Fab captured on neutravidin, bound phage detected with anti-M13 HRP).
T1 construct: Biotinylated and captured on neutravidin coated plates in the phage ELISA; also called 006 PSMA Fab
Description: (§1) Clonal phage were harvested as crude supernatants and screened via standard ELISAs. […] Prior to the addition of clonal phage. wells were incubated with blocking buffer and PSMA antigen or blocking buffer alone. Without washing or aspirating, clonal phage supernatants were then added to the wells and incubated for a short time. Wells were then washed followed by detection of bound phage using a horse radish conjugated anti-M13 antibody.

Binder | Anti-PSMA Fab (SEQ ID NOs: 19, 20) signal
B1 | 1.66
B2 | 1.57

Each binder was assayed against T1, Anti-PSMA Fab (SEQ ID NOs: 19, 20) (assay: phage binding ELISA on captured anti-PSMA Fab; PSMA antigen as competitor).
Description: as §1

Binder | Anti-PSMA Fab signal in the presence of PSMA
B1 | 0.107
B2 | 0.0801

What follows are binders tested against T2, Anti-PSMA Fab (SEQ ID NOs: 19, 20) (assay: phage ELISA; PSMA Fab on plate pre-incubated with PSMA antigen as competitor, anti-M13 HRP detection;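 also: crude clonal phage supernatants added to Fab-coated wells still holding PSMA antigen in blocking buffer, with bound phage as read-out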).
T2 construct: In the phage ELISA the Fab was biotinylated and captured on neutravidin coated plates; also called 006 PSMA Fab
Description: as §1

Binder | Phage binding ELISA, Anti-PSMA Fab signal in the presence of PSMA
B3 | 0.147
B4 | 0.0816
B5 | 0.0692
B6 | 0.148
B7 | 0.158
B8 | 0.182
B9 | 0.234
B10 | 0.0824
B11 | 0.0692
B12 | 0.0726

What follows are binders tested against T3, Anti-PSMA Fab (SEQ ID NOs: 19, 20) (assay: phage binding ELISA; biotinylated PSMA Fab on neutravidin plate, clonal phage supernatant, anti-M13 HRP detection;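 also: wells were preincubated with blocking buffer either containing PSMA antigen or without it before crude phage supernatant was added, briefly incubated, then washed prior to detection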).
T3 construct: Biotinylated PSMA Fab captured on neutravidin coated plates in the phage ELISA; also called 006 PSMA Fab
Description: as §1

Binder | Anti-PSMA Fab (SEQ ID NOs: 19, 20) signal
B13 | 2.23
B14 | 2.21
B15 | 2.29
B16 | 2.26
B17 | 2.22
B18 | 2.26
B19 | 2.22
B20 | 2.28
B21 | 2.23
B22 | 2.28
B23 | 2.29
B24 | 2.28
B25 | 2.24
B26 | 2.27
B27 | 2.23

These binders were tested against T3, Anti-PSMA Fab (SEQ ID NOs: 19, 20) (assay: phage binding ELISA; PSMA Fab on plate pre-incubated with PSMA antigen as competitor, anti-M13 HRP detection;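 also: crude clonal phage supernatants added without washing to wells preincubated with PSMA in blocking buffer, compared with wells receiving blocking buffer only, then bound phage detected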).
Description: as §1

Binder | Anti-PSMA Fab signal in the presence of PSMA
B13 | 0.0865
B14 | 0.0826
B15 | 0.275
B16 | 0.0833
B17 | 0.0928
B18 | 0.291
B19 | 0.0602
B20 | 0.0678
B21 | 0.109
B22 | 0.112
B23 | 0.0652
B24 | 0.0862
B25 | 0.145
B26 | 0.0653
B27 | 0.0977

These binders were tested against T2, Anti-PSMA Fab (SEQ ID NOs: 19, 20) (assay: phage ELISA; biotinylated PSMA Fab on neutravidin plate, clonal phage supernatant, anti-M13 HRP detection;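 also: wells preincubated with PSMA antigen in blocking buffer or with blocking buffer only before clonal phage were added for a short incubation, then bound phage detected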).
Description: as §1

Binder | Phage binding ELISA, Anti-PSMA Fab signal
B3 | 2.2
B4 | 2.17
B5 | 2.17
B6 | 2.17
B7 | 2.18
B8 | 2.17
B9 | 2.18
B10 | 2.2
B11 | 2.17
B12 | 2.17
